From USRE46585 (LABORATOIRE FRANCAIS DU FRACTIONNEMENT ET DES …, dated 2017)

target: T1, FcRn-p3 fusion protein (human, UniProt P55899 24-297; P61769 21-119); assay: ELISA pH6, soluble Fc on coated FcRn-p3
T1 construct: baculovirus expressed; coated on ELISA wells; not shown: amino terminal part of bacteriophage p3 protein and CVDE protein

EC50 [nM]	Binder
4.9	C6A_66 (soluble recombinant Fc polypeptide) (other, EU numbering; E. coli periplasmic expression; E294del is a deletion; not shown: C-terminal 6xHis tag and V5 tag) CPPCPAPELLGGPSVFLFPPKPKDTLMISRTPEVTCVVVDVSHEDPEVKFNWYVDGVEVHNAKTKPREQYNSTYRVVSVLPVLHQDWLNGKEYKCKVSNKALPAPIEKTISKAKGQPREPQVYTLPPSRDELTKNQVSLTCLVKGFYPSDIAVEWESNGQPENNYKTTPPVLDSDGSFFLYSKLTVDKSRWQQGNVFSCSVMHEALHYHYTQKSLSLSPGK
5.5	T5A_74 (soluble recombinant Fc polypeptide) (other, EU numbering; E. coli periplasmic expression; not shown: C-terminal 6xHis tag and V5 tag) CPPCPAPELLGGPSVFLFPPKPKDTLMISRTPEVTCVVVDVSHEDPEVKFNWYVDGVEVHNAKTKPREEQYNSTYRVVSVLTVLHQDWLDGKEYKCKVSNKALPVPIEKTISKAKGQPREPQVYTLPPSRDELTKDQVSLTCLVKGFYPSDIVVEWESNGQPENNYKTTPPVLDSDGSFFLYSKLTVDKSRWQQGNVFSCSVMHEALHYHYTQKSLSLSPGK
2.6	C6A_60 (soluble recombinant Fc polypeptide) (other, EU numbering; E. coli periplasmic expression; not shown: C-terminal 6xHis tag and V5 tag) CPPCSAPELLGGPSVFLFPPKPKDTLMISRTPEVTCVVVDVSHEDPEVKFNWYVDGVEVHNAKTKPREEQYNSTYRVVSVLTVLHQDWLDGKEYKCKVSNKALPAPIEKTISKAKGQPREPQVYTLPPSRDELTKNQVSLTCLVKGFYPSDIAVEWESNGQPENNYKTTPPVLDSDGSFFLYSKLTVDKSRWQQGNVFSCSVLHEALHYHYTQKSLSLSPGK

target: T1, FcRn-p3 fusion protein; assay: phage ELISA pH6

Ratio/Fc-WT [fold]	Binder
7.9	S5A_26 (other, EU numbering) CPPCPAPELLGGPSVFLFPPKPKDTLMISRTPEVTCVVVDVSHEDPEVKFNWYVDGVEVHNAKTKPREEQYNSTYRVVSVLTVLHRDWLNGKEYKCKVSNKALPAPIERTISKAKGEPREPQVYTLPPSRDELTKNQVSLTCLVKGFYPSDIAVEWESNGQPENNYKTTPPVLDSDGSFFLYSKLTVDKSRWQQGNVFSCSVMHEALHYHYTQKSLSLSPGK
4.3	SSA_20 (other, EU numbering; also called S5A_20 (probable reading)) CPPCQAPELLGGPSVYLFPPRPKDTLMISRTPEVTCVVVDVSHEEPEVKFNWYVDGVEVHNAKTKPREEQYNSTYRVVSVLTVLHQDWLNGKEYKCKVSNKALPAPIEKTISKAKGQPREPQVYTLPPSRDELTKNQVSLTCLVKGFYPSDIAVEWESNGQPENNYKTTPPVLDSDGSFFLYSKLTVDKSRWQQGNVFSCSVMHEALHNHYTQKSLSLSPGK
5.7	S5A_43 (other, EU numbering) CPPCSAPELLGGPSVFLFPPKPKDTLMISRTPEVTCVVVDVSHEDPEVKFNWYVDGVELHNAKTKPREEQYNSTYRVVSVLTVLHQDWLNGKEYKCKVSNKALPAPIEKTISKAKGQPREPQVYTLPPSRDELTKNQVSLTCLVKGFYPSDIVVEWESNGQPENNYKTTPPVLDSDGSFFLYSKLTVDKSRWQQGNVFSCSVMHEALHNHYTQKSLSLSPGK
4.4	S6A_48 (other, EU numbering) CPPCPAPELLGGPSVFLFPPKPKDTLMISRTPEVTCVVVDVSHEDPEVKFNWYVDGVEVHNAKTKPREEQYNSTYRVVSVLTVLHQDWLNGKEYKCKVSNKALPAPIEKTISKAKGQPREPQVYTLPPSQDELTKNQVSLTCLVKGFYPSDIAVEWESNGQPENNYENTPPVLDSDGSFFLYSKLTVDKSRWQQGNVFSCTVMHEALHYHYTQKSLSLSPGK
5.1	S5A_07 (other, EU numbering) CPPCPAPELLGGPSVFLFPPKPKDTLMISRTPEVTCVVVDVSHEDPEVKFNWYVDGVEVHNAKTKPREEQYNSTYRVVSVLTVLHQDWLNGKEYKCKVSNKALPAPIEKTISKAKGQPREPQVYTLPPSRDELTKNQVSLTCLVKGFYPSDIVVEWESNGQPENNYKTTPPVLDSDGSFFLYSKLTVDKSRWQQGTVFSCSVMHEALHSHYTQKSLSLSPGK

The next lines start with the binder.

Binder	Ratio/Fc-WT [fold]
S4A_05 (other, EU numbering) CPPCPAPELLGGPSVFLFPPKPKDTLMISRTPEVTCVVVDVSHEDPEVKFNWYVDGVEVHNAKTKPREEQYNSTYRVVSVLTVLHQDWLNGKEYKCKVSNKALPAPIEKTISKAKGQPREPQVYTLPPSRDELTKNQVSLTCLVKGFYPSDIVVEWESNGQPENNYKTTPPVLDSAGSFFLYSKLTVDKSRWQQGNVFSCSVMHEALHYHYTQKSLSLSPGK	3.7
S4A_17 (other, EU numbering) CPPCPAPELLGGPSVFLFPPKPKDTLMISRTPEVTCVVVDVSHEDPEVKFNWYVDGVEVHNAKTKPREEQYNSTYRAVSVLTVLHQDWLNGKEYKCKVSNKALPAPIEKTISKAKGQPREPQVYTLPPSRDELTKNQVSLTCLVKGFYPSDIAVEWESNGQPETNYKTTPPVLDSDGSFFLYSKLTVDKSRWQQGNVFSCSVMHEALHSHYTQKSLSLSPGK	3.8
S4A_25 (other, EU numbering) CPPCPAPELLGGPSVFLFPPKPKDTLMISRTPEVTCVVVGVSHEDPEVKFNWYVDGVEVHNAKTKPREEQYNSTYRVVSVLTVLHQDWLNGKEYKCKVSNKALPAPIEKTISKAKGQPREPQVYTLPPSRDELTKNQVSLTCLVKGFYPSDIAVEWESNGQPENNYKTTPPVLDSDGSFFLYTKLTVDKSRWQQGNVFSCSVMHEALHYHYTQKSLSLFPGK	4.2
S4A_24 (other, EU numbering) CPPCPAPELLGGPSVFLFPPKPKDTLMISRTPEVTCVVEDVSHEDPEVKFNWYVDGVEVHNAKTKPREEQYNSTYCVVSVLTVLHQDWLNGKEYKCKVSNKALPAPIEKTISKAKGQPREPQVYTLPPSRDELTKNQVSLTCLVKGFYPSDIVVEWGSNGQPENNYKTTPPVLDSDGSFFLYSKLTVDKSRWQQGNVFSCSVMHEALHNHYTQKSLSLSPGK	5.4
S4A_36 (other, EU numbering) CPPCQAPELLGGPSVFLFPPKPKDTLMISRTPEVTCVVADVSHEDPEVKFNWYVDGVEVHNAKTKPREEQYNSTYRVVSVLTVLHQDWLNGKEYKCKVSNKALPAPIEKTISKAKGQPREPQVYTLSPSRDELTKNQVSLTCLVKGFYPSDIVVEWESNGQPENNYKTTPPVLDSDGSFFLYSKLTVDKSRWQQGNVFSCSVMHEALHNHYTQKSLSLSPGK	4.5
S4A_42 (other, EU numbering) CPPCPAPELLGGPSVFLFPPKPKDTLMISRTPEVTCVVADVSHEDPEVKFNWYVDGVEVHNAKTKPREEQYNSTYRVVSVLTVLHQDWLNGKEYKCKVSNKALPAPIEKTISKAKGQPREPQVYTLPPSRDELTKNQVSLTCLVKGFYPSDIAVEWESNGQPENNYKTTPPVLDSDGSFFLYSKLTVDKSRWQQGNVFSCSVMHEALHYHYTQKSLSLSPAK	4.2
S4A_14 (other, EU numbering) CPPCPAPELLGGPSVFLFPPKPKDTLMISRTPEVTCVVVDVSHEDPEVKFSWYVDGVEVHNAKTKPREEQYNSTYRVVSVLTVLHQDWLNGKEYKCKVSNKALPAPIEKTISKAKGQPREPQVYTLPPSRDELTKNQVSLTCLVKGFYPSDIVVEWESNGQPENNYKTTPPVLDSDGSFFLYSKLTVDKSRWQQGNVFSCSVMHEALHSHYTQKSLSLSPGK	5.9
S4A_07 (other, EU numbering) CPPCPAPELLGGPSVFLFPPKPKDTLMISRTPEVTCVVVDVSHEDPEVKFNWYVDGVEVHNAKTKPREEQYNSTYRVVSVLPVLHQDWLNGKEYKCKVSNKALPAPIEKTISKAKGQPREPQVYTLPPSRDELTKNQVSLTCLVKGFYPSDIAVEWESNGQPETNYKTTPPVLDSDGSFFLYSKLTVDKSRWQQGNVFSCSVMHEALHYHYTQKSLSLSPGK	6.6
